Measured values taken from publication PMC6402485 (Biochemistry, 2013).
Like-named read-outs stand apart in the source and are kept apart here.

What was measured:
native MS [1] = molecular target: the molecule itself; test: native MS
native MS [2] = molecular target: the molecule itself; test: native MS; remark: listed apart in the source

B1: Wild type SgrAI ENase (enzyme, Streptomyces griseus)
chain: PFTYSIEATRNLATTERCIQDIRNAPVRNRSTQFQLAQQNMLAYTFGEVIPGFASAGINGMNYRDVIGRPVENAVTEGTHFFRDDFRVDSNAKAKVAGDIFEIVSSAVMWNCAARWNSLMVGEGWRSQPRYSRPTLSPSPRRQVAVLNLPRSFDWVSLLVPESQEVIEEFRAGLRKDGLGLPTSTPDLAVVVLPEEFQNDEMWREEIAGLTRPNQILLSGAYQRLQGRVQPGEISLAVAFKRSLRSDRLYQPLYEANVMQLLLEGKLGAPKVEFEVHTLAPEGTNAFVTYEAASLYGLAEGRSAVHRAIRELYVPPTAADLARRFFAFLNERMELVNG
stoichiometry N (native MS [1]): 38
stoichiometry N (native MS [2]): 2
